# Patent publication US20230406948A1 (APEXIGEN, published 2023)
# No end group written: not given here.
# B1: APX005, humanized version of the R-8 rabbit anti-CD40 antibody (antibody, IgG1, V domains shown)
# VH: QVQLVESGGGVVQPGRSLRLSCAASGFSFSSTYVCWVRQAPGKGLEWIACIYTGDGTNYSASWAKGRFTISKDSSKNTVYLQMNSLRAEDTAVYFCARPDITYGFAINFWGPGTLVTVSS
# VL: DIQMTQSPSSLSASVGDRVTIKCQASQSISSRLAWYQQKPGKPPKLLIYRASTLASGVPSRFSGSGSGTDFTLTISSLQPEDVATYYCQCTGYGISWPIGGGTKVEIK
# notes: also called humanized R-8; APX005 wild type
# Columns and labels:
# [1] = molecular target: T1, human CD40 on cells (native CD40 on Ramos cells, human B cells, human monocyte-derived dendritic cells); cell … (human, UniProt P25942 21-193); test: FACS on Ramos cells, 30 min at 4 C, Alexa 488 goat anti-human IgG
# T1 construct: Endogenous CD40 on human cells; also called native CD40 protein; CD40 positive cells
# Procedure: In order to assess the target mediated-internalization of APX005 for evaluating its impact on ADCC activity, Ramos cells were incubated with APX005 for 4 h at 37° C., a temperature permissive for internalization, or at 4° C. for 30 minutes, a temperature at which internalization is minimized. Cells were washed with staining buffer, followed by incubation with Alexa 488 labeled goat anti-human IgG for an additional 30 minutes at 4° C. FACS analysis was performed to examine the level of APX005 on the cell surface.
# [2] = molecular target: T2, CD40 CLIPS peptide, residues 84-102 of CD40 (84TCEEGWHCTSEACESCVLH102) (human, linker (positions not given here) via CLIPS template (1,3-bis(bromomethyl)benzene); also: cysteine side chains coupled to CLIPS template(s), solid-phase bound peptide of Pepscan array); test: PEPSCAN-based ELISA on solid-phase CLIPS peptides
# T2 construct: It is the unmutated control peptide of the mutagenesis set
# T2 peptide: TCEEGWHCTSEACESCVLH
# From the text: To reconstruct discontinuous epitopes of the target molecule a library of structured peptides was synthesized. This was done using Pepscan's proprietary Chemically Linked Peptides on Scaffolds (CLIPS™) technology (Pepscan Presto, Lelystad The Netherlands) (see e.g., Timmerman et al. (2007). J. Mol. Recognit. 20:283-99; Slootstra et al. (1996). Molecular Diversity 1: 87-96). CLIPS™ technology provides the ability to structure peptides into single loops, double-loops, triple loops, sheet-like folds, helix-like folds and combinations thereof. CLIPS™ templates are coupled to cysteine residues. For this experiment, the side-chains of multiple cysteines in the peptides were coupled to one or two CLIPS™ templates. […]
# The binding of antibody to each of the synthesized peptides was tested in a PEPSCAN-based ELISA. […] After one hour, the color development was measured. The color development was quantified with a charge coupled device (CCD)—camera and an image processing system.
# human CD40 = molecular target: T3, human CD40 (human, UniProt P25942 21-193); test: method not stated
# T3 construct: also called immobilized human CD40
# [3] = molecular target: T4, mouse CD40 on mouse A20 cells (mouse, UniProt P27512 20-289); test: FACS on mouse A20 cells, goat anti-human IgG (H+L) R-PE
# T4 construct: whole, on cells
# Procedure: Cross-reactivity of APX005 with mouse CD40 was further determined by FACS binding to a mouse A20 cell line which expresses mouse CD40. An aliquot of 0.5×10⁶ A20 cells was added to 96 well plates and incubated with 100 μl diluted rat anti-mouse CD40 antibody conjugated with PE, APX005 or IgG1 control antibodies. After washing, 100 μl Goat-anti human IgG (H+L) conjugated with R-PE (Southern Biotech CAT #2040-09) were added at 1:200 dilution in PBS to the sample and incubated for detection of APX005 and control human IgG1. A rat anti-mouse CD40 antibody conjugated with PE was used as positive control. Samples were re-suspended with 0.5 ml PBS and analyzed by FACS.
# [4] = molecular target: T5, fusion protein of rabbit Fc and 4-1 BB (UniProt Q07011 24-186); test: direct ELISA, 1 ug/ml rabbit Fc-4-1BB fusion coated, goat anti-human IgG-HRP
# T5 construct: Neither the species nor the order of the parts is stated; not shown: rabbit Fc
# Procedure: (§1) Binding selectivity of APX005 was assessed by direct ELISA to a panel of TNFR family proteins. A total of 1 μg/ml of fusion protein of rabbit Fc and CD40, RANK, TweakR, OX40, DR5 and 4-1 BB were coated on ELISA plates. Bound APX005 was detected using goat anti-human HRP-conjugated IgG.
# [5] = molecular target: T6, CD40 peptide, residues 125-144 of human CD40 (125PCPVGFFSNVSSAFEKCHPW144) (human); test: PEPSCAN-based ELISA on solid-phase peptides
# T6 construct: It is the unmutated control peptide of the mutagenesis set
# T6 peptide: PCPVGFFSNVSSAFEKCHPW
# Procedure: The binding of antibody to each of the synthesized peptides was tested in a PEPSCAN-based ELISA. The peptide arrays were incubated with primary antibody solution (overnight at 4° C.). After washing, the peptide arrays were incubated with a 1/1000 dilution of an antibody peroxidase conjugate (SBA, cat.nr.2010-05) for one hour at 25° C. After washing, the peroxidase substrate 2,2′-azino-di-3-ethylbenzthiazoline sulfonate (ABTS) and 2 microliters/milliliter of 3 percent H₂O₂ were added. After one hour, the color development was measured. The color development was quantified with a charge coupled device (CCD)—camera and an image processing system.
# [6] = molecular target: T7, fusion protein of rabbit Fc and DR5 (UniProt O14763 56-182, limits assumed); test: direct ELISA, 1 ug/ml rabbit Fc-DR5 fusion coated, goat anti-human IgG-HRP
# T7 construct: Neither the species nor the order of the parts is stated; not shown: rabbit Fc
# Procedure: as §1
# [7] = molecular target: T1, human CD40 on cells (native CD40 on …); test: cell-based or functional assay
# [8] = molecular target: T8, fusion protein of rabbit Fc and OX40 (UniProt P43489 29-216); test: direct ELISA, 1 ug/ml rabbit Fc-OX40 fusion coated, goat anti-human IgG-HRP
# T8 construct: Neither the species nor the order of the parts is stated; not shown: rabbit Fc
# T8 sequence (looked up): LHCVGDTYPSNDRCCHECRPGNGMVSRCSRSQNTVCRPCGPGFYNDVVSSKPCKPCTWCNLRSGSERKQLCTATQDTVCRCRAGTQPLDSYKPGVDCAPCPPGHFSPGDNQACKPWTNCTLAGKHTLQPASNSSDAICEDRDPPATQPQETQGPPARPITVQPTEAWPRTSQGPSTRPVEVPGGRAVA
# Procedure: as §1
# T1 sequence (P25942 21-193): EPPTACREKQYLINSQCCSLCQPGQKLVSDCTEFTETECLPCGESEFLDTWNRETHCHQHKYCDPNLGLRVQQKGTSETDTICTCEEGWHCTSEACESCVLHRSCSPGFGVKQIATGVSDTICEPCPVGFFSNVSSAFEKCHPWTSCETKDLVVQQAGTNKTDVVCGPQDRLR
# T3 sequence (P25942 21-193 limits assumed): as the sequence (P25942 21-193) above
# T7 sequence (O14763 56-182 limits assumed): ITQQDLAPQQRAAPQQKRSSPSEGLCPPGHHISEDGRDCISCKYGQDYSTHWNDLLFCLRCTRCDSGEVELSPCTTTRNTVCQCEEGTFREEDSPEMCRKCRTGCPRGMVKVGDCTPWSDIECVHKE
# T5 sequence (Q07011 24-186): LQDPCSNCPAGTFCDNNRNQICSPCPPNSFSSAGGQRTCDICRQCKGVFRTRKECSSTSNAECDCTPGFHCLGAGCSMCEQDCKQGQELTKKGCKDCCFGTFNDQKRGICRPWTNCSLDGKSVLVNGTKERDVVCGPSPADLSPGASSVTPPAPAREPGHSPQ
# T4 sequence (P27512 20-289): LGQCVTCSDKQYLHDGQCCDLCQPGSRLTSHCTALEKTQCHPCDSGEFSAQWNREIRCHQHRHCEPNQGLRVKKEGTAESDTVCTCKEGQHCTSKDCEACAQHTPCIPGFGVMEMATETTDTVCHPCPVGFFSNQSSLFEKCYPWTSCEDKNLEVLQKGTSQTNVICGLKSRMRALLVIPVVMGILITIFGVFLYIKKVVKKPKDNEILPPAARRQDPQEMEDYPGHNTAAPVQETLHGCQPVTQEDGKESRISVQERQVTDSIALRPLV
binder,measurement,setting,value
B1,EC50 (read off the curve),[1],~0.05 µg/mL
same,binding result,[2],binds
same,Kd,human CD40,0.96 nM
same,binding result,[3],no binding (tested: 10000 ng/ml)
same,binding result,[4],no binding
same,binding result,[5],binds
same,binding result,[6],no binding
same,"EC50 (ng/ml), CD40 agonist activity: up-regulation of CD86 on human B cells",[7],24.4 ng/mL
same,binding result,[8],no binding
